For this test, the target named is protein A-derived Z-domain of the mAbSelect SuRe resin. Nature of the test: protein A (Z-domain) affinity chromatography, pH-gradient elution.

human IgG1 T307P, L309Q (antibody) returned an elution pH from the protein A (Z-domain) column of 4.48 pH.

These data come from paper PMC5686111.
